The text below walks through data of publication doi:10.1101/2020.02.01.930206 (bioRxiv, 2020).

A word on the Kd: it is the free concentration of one partner at which half of the binding sites on the other are occupied at equilibrium, for simple one-to-one binding. A lower Kd goes with higher affinity.

In data set [1] the target is T1, full-length mouse DNA2 (mouse, UniProt Q6ZQJ5 1-1062).
T1 sequence: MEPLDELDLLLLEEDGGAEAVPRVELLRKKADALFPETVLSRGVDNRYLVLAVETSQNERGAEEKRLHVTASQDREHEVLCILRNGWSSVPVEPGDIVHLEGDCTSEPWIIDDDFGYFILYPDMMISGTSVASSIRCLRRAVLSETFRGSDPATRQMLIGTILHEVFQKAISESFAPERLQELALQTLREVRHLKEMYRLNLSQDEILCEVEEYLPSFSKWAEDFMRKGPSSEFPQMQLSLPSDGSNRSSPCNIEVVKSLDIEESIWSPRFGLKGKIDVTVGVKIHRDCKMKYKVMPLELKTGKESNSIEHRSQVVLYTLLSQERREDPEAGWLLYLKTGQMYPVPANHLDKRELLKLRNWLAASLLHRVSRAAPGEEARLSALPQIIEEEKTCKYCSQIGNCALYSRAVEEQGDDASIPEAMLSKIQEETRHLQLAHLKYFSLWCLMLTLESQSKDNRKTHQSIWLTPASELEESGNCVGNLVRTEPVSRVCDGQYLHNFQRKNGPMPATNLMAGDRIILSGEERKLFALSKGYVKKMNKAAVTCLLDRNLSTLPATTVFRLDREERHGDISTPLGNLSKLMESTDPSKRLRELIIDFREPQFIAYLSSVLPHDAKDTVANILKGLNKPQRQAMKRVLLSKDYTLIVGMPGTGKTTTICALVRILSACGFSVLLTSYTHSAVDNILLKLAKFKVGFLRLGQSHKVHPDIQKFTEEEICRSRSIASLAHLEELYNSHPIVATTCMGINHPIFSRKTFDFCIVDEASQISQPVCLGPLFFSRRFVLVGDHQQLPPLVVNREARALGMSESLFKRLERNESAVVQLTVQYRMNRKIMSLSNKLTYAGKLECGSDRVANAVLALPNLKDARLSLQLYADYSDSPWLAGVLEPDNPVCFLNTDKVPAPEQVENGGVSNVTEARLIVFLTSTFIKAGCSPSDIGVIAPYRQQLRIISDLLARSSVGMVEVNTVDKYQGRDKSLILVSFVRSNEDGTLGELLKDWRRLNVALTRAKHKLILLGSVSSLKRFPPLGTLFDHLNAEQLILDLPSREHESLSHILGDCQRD
The data set is described as follows: cryo-EM structure.

Data set [2] concerns the molecule itself. The experiment in a line: crystal structure.
Data set [3] deals with T2, human primase (PriL-PriS heterodimer) (human, UniProt P49643;P49642).
T2 sequence 1: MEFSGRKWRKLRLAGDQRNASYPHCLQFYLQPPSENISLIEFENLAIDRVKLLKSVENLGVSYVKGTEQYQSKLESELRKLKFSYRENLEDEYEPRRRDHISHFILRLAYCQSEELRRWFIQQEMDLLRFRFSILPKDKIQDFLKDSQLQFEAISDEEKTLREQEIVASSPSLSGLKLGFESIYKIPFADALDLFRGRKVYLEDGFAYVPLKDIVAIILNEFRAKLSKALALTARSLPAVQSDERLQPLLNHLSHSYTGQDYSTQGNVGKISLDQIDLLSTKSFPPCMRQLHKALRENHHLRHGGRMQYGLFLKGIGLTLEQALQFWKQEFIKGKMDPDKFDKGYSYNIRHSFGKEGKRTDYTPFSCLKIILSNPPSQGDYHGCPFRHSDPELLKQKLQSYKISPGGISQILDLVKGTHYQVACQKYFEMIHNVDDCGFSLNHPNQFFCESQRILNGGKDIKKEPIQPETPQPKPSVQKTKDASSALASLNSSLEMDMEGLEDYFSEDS
T2 sequence 2: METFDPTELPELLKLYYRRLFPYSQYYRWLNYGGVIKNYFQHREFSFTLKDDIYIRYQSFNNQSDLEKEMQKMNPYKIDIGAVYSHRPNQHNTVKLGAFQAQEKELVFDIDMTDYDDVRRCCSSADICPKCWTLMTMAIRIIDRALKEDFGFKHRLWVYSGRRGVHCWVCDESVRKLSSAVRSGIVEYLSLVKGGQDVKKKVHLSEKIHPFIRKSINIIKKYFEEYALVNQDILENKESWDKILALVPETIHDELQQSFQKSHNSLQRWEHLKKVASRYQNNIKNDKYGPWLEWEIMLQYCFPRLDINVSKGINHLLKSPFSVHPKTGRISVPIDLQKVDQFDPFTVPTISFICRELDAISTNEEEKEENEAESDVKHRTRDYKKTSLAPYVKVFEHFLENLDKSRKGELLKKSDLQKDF
The data set is described as follows: ITC. In general terms: Isothermal titration calorimetry measures the heat released or taken up as one component is titrated into another.

B1: human MMS19 (subunit of the purified CTC) (natural protein)
chain: MAAAAAVEAAAPMGALWGLVHDFVVGQQEGPADQVAADVKSGNYTVLQVVEALGSSLENPEPRTRARAIQLLSQVLLHCHTLLLEKEVVHLILFYENRLKDHHLVIPSVLQGLKALSLCVALPPGLAVSVLKAIFQEVHVQSLPQVDRHTVYNIITNFMRTREEELKSLGADFTFGFIQVMDGEKDPRNLLVAFRIVHDLISRDYSLGPFVEELFEVTSCYFPIDFTPPPNDPHGIQREDLILSLRAVLASTPRFAEFLLPLLIEKVDSEVLSAKLDSLQTLNACCAVYGQKELKDFLPSLWASIRREVFQTASERVEAEGLAALHSLTACLSRSVLRADAEDLLDSFLSNILQDCRHHLCEPDMKLVWPSAKLLQAAAGASARACDSVTSNVLPLLLEQFHKHSQSSQRRTILEMLLGFLKLQQKWSYEDKDQRPLNGFKDQLCSLVFMALTDPSTQLQLVGIRTLTVLGAQPDLLSYEDLELAVGHLYRLSFLKEDSQSCRVAALEASGTLAALYPVAFSSHLVPKLAEELRVGESNLTNGDEPTQCSRHLCCLQALSAVSTHPSIVKETLPLLLQHLWQVNRGNMVAQSSDVIAVCQSLRQMAEKCQQDPESCWYFHQTAIPCLLALAVQASMPEKEPSVLRKVLLEDEVLAAMVSVIGTATTHLSPELAAQSVTHIVPLFLDGNVSFLPENSFPSRFQPFQDGSSGQRRLIALLMAFVCSLPRNVEIPQLNQLMRELLELSCCHSCPFSSTAAAKCFAGLLNKHPAGQQLDEFLQLAVDKVEAGLGSGPCRSQAFTLLLWVTKALVLRYHPLSSCLTARLMGLLSDPELGPAAADGFSLLMSDCTDVLTRAGHAEVRIMFRQRFFTDNVPALVQGFHAAPQDVKPNYLKGLSHVLNRLPKPVLLPELPTLLSLLLEALSCPDCVVQLSTLSCLQPLLLEAPQVMSLHVDTLVTKFLNLSSSPSMAVRIAALQCMHALTRLPTPVLLPYKPQVIRALAKPLDDKKRLVRKEAVSARGEWFLLGSPGS
B1: the binding result in data set [1] is “binds”.

B2: full-length mouse MMS19 (natural protein)
chain: MAAATGLEEAVAPMGALCGLVQDFVMGQQEGPADQVAADVKSGGYTVLQVVEALGSSLENAEPRTRARGAQLLSQVLLQCHSLLSEKEVVHLILFYENRLKDHHLVVPSVLQGLRALSMSVALPPGLAVSVLKAIFQEVHVQSLLQVDRHTVFSIITNFMRSREEELKGLGADFTFGFIQVMDGEKDPRNLLLAFRIVHDLISKDYSLGPFVEELFEVTSCYFPIDFTPPPNDPYGIQREDLILSLRAVLASTPRFAEFLLPLLIEKVDSEILSAKLDSLQTLNACCAVYGQKELKDFLPSLWASIRREVFQTASERVEAEGLAALHSLTACLSCSVLRADAEDLLGSFLSNILQDCRHHLCEPDMKLVWPSAKLLQAAAGASARACEHLTSNVLPLLLEQFHKHSQSNQRRTILEMILGFLKLQQKWSYEDRDERPLSSFKDQLCSLVFMALTDPSTQLQLVGIRTLTVLGAQPGLLSAEDLELAVGHLYRLTFLEEDSQSCRVAALEASGTLATLYPGAFSRHLLPKLAEELHKGESDVARADGPTKCSRHFRCLQALSAVSTHPSIVKETLPLLLQHLCQANKGNMVTESSEVVAVCQSLQQVAEKCQQDPESYWYFHKTAVPCLFALAVQASMPEKESSVLRKVLLEDEVLAALASVIGTATTHLSPELAAQSVTCIVPLFLDGNTSFLPENSFPDQFQPFQDGSSGQRRLVALLTAFVCSLPRNVEIPQLNRLMRELLKQSCGHSCPFSSTAATKCFAGLLNKQPPGQQLEEFLQLAVGTVEAGLASESSRDQAFTLLLWVTKALVLRYHPLSACLTTRLMGLLSDPELGCAAADGFSLLMSDCTDVLTRAGHADVRIMFRQRFFTDNVPALVQGFHAAPQDVKPNYLKGLSHVLNRLPKPVLLPELPTLLSLLLEALSCPDSVVQLSTLSCLQPLLLEAPQIMSLHVDTLVTKFLNLSSSYSMAVRIAALQCMHALTRLPTSVLLPYKSQVIRALAKPLDDKKRLVRKEAVSARGEWFLLGSPGS
Consider B2, for which the binding result in data set [2] is “binds”.

B3: human CIAO1-CIAO2B core complex (complex)
chain 1: not shown
chain 2: MVGGGGVGGGLLENANPLIYQRSGERPVTAGEEDEQVPDSIDAREIFDLIRSINDPEHPLTLEELNVVEQVRVQVSDPESTVAVAFTPTIPHCSMATLIGLSIKVKLLRSLPQRFKMDVHITPGTHASEHAVNKQLADKERVAAALENTHLLEVVNQCLSARS
As to B3, the affinity in data set [3], expressed as Kd, was 5.4 µM.

B4: human MMS19^710-1030-CIAO1-CIAO2B complex (complex)
chain 1: GQRRLIALLMAFVCSLPRNVEIPQLNQLMRELLELSCCHSCPFSSTAAAKCFAGLLNKHPAGQQLDEFLQLAVDKVEAGLGSGPCRSQAFTLLLWVTKALVLRYHPLSSCLTARLMGLLSDPELGPAAADGFSLLMSDCTDVLTRAGHAEVRIMFRQRFFTDNVPALVQGFHAAPQDVKPNYLKGLSHVLNRLPKPVLLPELPTLLSLLLEALSCPDCVVQLSTLSCLQPLLLEAPQVMSLHVDTLVTKFLNLSSSPSMAVRIAALQCMHALTRLPTPVLLPYKPQVIRALAKPLDDKKRLVRKEAVSARGEWFLLGSPGS
chain 2: not shown
chain 3: B3 chain 2
With B4, the Kd in data set [3] came out at 0.832 µM.
